Results published in patent publication US20210363204A1.

Target: human Nav1.7, Q15858
Settings: chains peptide; modification not given

## GPYCQKWMWTCDSERKCCEGMVCRLWCKKKLW [recombinant Protoxin-II]
  IC50: 62 nM
